Measurements as given in patent US8252740B2, “Thermally-targeted delivery of medicaments including doxorubicin” (The University of Mississippi Medical Center, priority 2006, dated 2012).
Where two headings read alike, the source gives them in different places.

Key:
[1] = Turbidity assay of the transition temperature (Tt); assay type: physicochemical
Procedure: In order to apply ELP-based polypeptides for drug delivery, a suitable temperature transition must be attained. The drug-labeled ELP should undergo its phase transition between 39 and 42° C., a temperature range sufficiently above normal body temperature to prevent unwanted systemic aggregation, but not hot enough to cause extensive toxicity. Elastin-like polypeptide is ideally suited as a thermally targeted drug carrier because the transition temperature can be easily manipulated by varying the molecular weight or the amino acid composition of the guest residue X in the VPGXG (SEQ ID NO: 2) sequence using simple molecular biology techniques. The transition temperature of Tat-ELP-GFLG-DOX (SEQ ID NO: 3) was assessed by monitoring the turbidity of a solution of the polypeptide while heating in physiological buffer. […] The polypeptide is soluble and the solution is clear at physiological temperature (37° C.).
1.4. Characterization of the Transition Temperature. The temperature induced aggregation of the proteins was characterized by monitoring absorbance at 350 nm while increasing the temperature. For initial analysis of Dox-labeled ELPs, solutions containing 10 μM protein in PBS were heated or cooled at a constant rate of 1° C./min in a temperature-controlled multicell holder in a UV-visible spectrophotometer (Cary 100, Varian instruments). The analysis was repeated with Tat-ELP1-GFLG-Dox (SEQ ID NO: 3) at concentrations ranging from 1 μM to 30 μM in cell culture media in order to determine the concentration dependence of the phase transition under experimental conditions. Absorbance data was converted to percentage of the maximal absorbance for each curve, and the Tt was defined as the temperature at which the OD350 reached 50% of the maximum turbidity. The concentration dependence of the Tt was fit using a logarithmic equation.
3.2. Thermal Properties of the Dox Delivery Vector. […] The Tt of Tat-ELP-GFLG-Dox (SEQ ID NO: 3) was assessed by monitoring the turbidity of a 10 μM solution of the polypeptide while heating in PBS. […]

[2] = test system: MES-SA uterine sarcoma cells; assay type: cell-based, human; settings: for Inhibition of cell proliferation: 5 μM, counted after 72 h; for IC50: cells counted after 72 h, ± SEM
Procedure: MES-SA cells were treated for 1 h at 37 or 42° C. with 5 μM Tat-ELP-GFLG-DOX (SEQ ID NO: 3); ELP-GFLG-DOX (SEQ ID NO: 3), which lacks the Tat cell penetrating peptide; or Tat-ELP-GFLG (SEQ ID NO: 3), which is not labeled with DOX. After the 1 h treatment, cells were rinsed and fresh media was replaced for 72 h. Cells remaining after 72 h were collected by trypsinization and counted using a Coulter counter. […] Similarly, the control polypeptide which lacks the Tat sequence was not cytotoxic, likely because it cannot efficiently enter the cells.
1.8 Cytotoxicity Assay. Cells were plated and treated for 1 h at 37° C. and 42° C. as described above with Tat-ELP1-GFLG-Dox (SEQ ID NO: 3), Tat-ELP2-GFLG-Dox (SEQ ID NO: 3), or control polypeptides lacking the Tat sequence or unlabeled with Dox. Cells were rinsed and harvested 72 h after treatment by trypsinization, collected by centrifugation, and resuspended in isotonic buffer. Cell number was determined using a Coulter counter and expressed as a percentage of untreated cells.
1.10. Data Fitting and Statistical Analysis. The concentration dependence of the Tt was fit with a logarithmic equation using Microsoft Excel. Dose-response curves were fit using exponential or sigmoid equations as applicable using Microcal Origin in order to determine the 50% inhibitory concentration (IC50). […] The significance of the thermal targeting index was assessed by comparing the normothermia group with the hyperthermia group using a paired Student's t-test in Microsoft Excel. p values of less than 0.05 were considered statistically significant. Polypeptide uptake and caspase activation were analyzed for statistical differences using one-way ANOVA analyses with post-hoc Scheffe's tests for pair-wise comparisons of treatment groups. The statistical significance level was p<0.05.
3.5. Cytotoxicity of ELP-delivered Dox. The growth-inhibitory activity of Tat-ELP-GFLG-Dox (SEQ ID NO: 3) was evaluated in the MES-SA uterine sarcoma cell line. MES-SA cells were treated for 1 h at 37° C. or 42° C. with various concentrations of Tat-ELP-GFLG-Dox (SEQ ID NO: 3); ELP-GFLG-Dox (SEQ ID NO: 3), which lacks the Tat cell penetrating peptide, the Tat-ELP-GFLG (SEQ ID NO: 3) polypeptide without Dox; or free Dox. After the 1 h treatment, the cells were rinsed and fresh media was replaced for 72 h. Cells remaining after 72 h were rinsed, collected by trypsinization, and counted using a Coulter counter. […] The toxicity of the unlabeled Tat-ELP-GFLG (SEQ ID NO: 3) protein was negligible when treated below the Tt.

Tat-ELP1-GFLG-Dox
Transition temperature (Tt) ([1]; 10 μM in PBS, heated 1° C./min, midpoint of turbidity): 40 °C | State of the solution at physiological temperature ([1]; 37° C.): soluble | State of the solution at hyperthermia temperature ([1]; 42° C.): aggregated | Cytotoxicity in words [2]: cytotoxic at 37° C., but high concentrations were needed | Enhancement of cytotoxicity (reduction of IC50) by hyperthermia [2]: twenty-fold | Inhibition of cell proliferation ([2]; 1 h at 37° C.): little toxicity | Inhibition of cell proliferation ([2]; 1 h at 42° C.): complete inhibition of cell proliferation | IC50 ([2]; 1 h treatment at 37° C., read-out: IC50 (37° C.)): 21.9 ± 8.2 µM | IC50 ([2]; 1 h treatment at 42° C., read-out: IC50 (42° C.)): 1.1 ± 0.1 µM
